In US9487561B2, “Biologically active complex and its preparation” (HAMLET PHARMA AB, priority 2010, dated 2016):

Assays:
[1] = test system: human lung carcinoma (A549) cells; assay: extended microarray analysis (Illumina HumanHT-12); assay type: cell-based
Procedure: (§1) For the extended microarray analysis, gene expression was assessed by whole genome Illumina microarrays (HumanHT-12 Expression BeadChip). Data was normalized using cross-correlation (Chua et al., 2006 Nucleic Acids Research 34: e38). Genes with a log 2 fold change ≧1.2 in tumor cells and ≧2.0 in healthy, differentiated cells at any time point were regarded as differentially expressed (Benjamini-Hochberg adjusted p-value <0.05).
(§2) To identify the pathways that execute tumor cell death downstream of the ion channels, we further examined the global transcriptional responses to HAMLET in human lung carcinoma (A549) and kidney carcinoma (A498) cells over an extended period of 15 min to 24 hours. The p38 MAPK signaling pathway was identified as a top-scoring canonical pathway in A549 cells (FIG. 4A).

bladder cancer [2] = conditions: local instillations; cited from earlier work
[3] = test system: healthy, differentiated pediatric kidney cells; assay: extended microarray analysis (Illumina HumanHT-12); assay type: cell-based, human
Procedure: as §1
(§3) To examine the molecular basis of the difference in HAMLET susceptibility between carcinoma cells and healthy, differentiated cells, transcriptional profiles were compared. […] These cytokines were not secreted by the carcinoma cells.

[4] = test system: p38, HSP27 in healthy, differentiated kidney cells; assay: MAPK phosphorylation in healthy cells; assay type: cell-based, human
skin papillomas = conditions: topical administration, placebo controlled; cited from earlier work
glioblastoma xenograft = conditions: rat, in vivo; cited from earlier work
tumor cells = assay: Tumoricidal Activity of Oleate-HAMLET (cell death method of Example 1); assay type: cell-based; conditions: 0.5 mg/ml
Procedure: Cells were detached from cell culture flasks with versen (0.2 g EDTA in 200 ml H2O and 800 ml PBS), washed with PBS and resuspended in serum-free RPMI-1640. HAMLET dissolved in PBS was incubated with cells (0.5×10^6/ml for A549, A498 and HeLa cells; 1×10^6/ml for Jurkat) at 37° C. FCS was added after 1 hour. Cell death was quantified by trypan blue exclusion (Chroma Gesellschaft Schmid & Co) or by measuring ATP levels (ATPlite Kit, PerkinElmer, Infinite 200, Tecan).

[5] = test system: Human renal tubular epithelial cells (HRTEC); assay: Ca^2+ and K^+ levels in healthy, differentiated cells in primary culture; assay type: cell-based; conditions: HAMLET 35 μM
Procedure: Human renal tubular epithelial cells (HRTEC) were preincubated with Fluo-4 as described, exposed to HAMLET (35 μM) and examined by real time confocal microscopy.
To further characterize ion channel activation by HAMLET, carcinoma cells were pretreated with defined channel blockers. Amiloride is a sodium channel inhibitor with effects on mechanosensitive channels, barium chloride (BaCl2) is a general K^+ channel inhibitor, gadolinium chloride (GdCl3) inhibits mechanosensitive channels, Ruthenium red is a general Ca^2+ inhibitor and tetrandrine inhibits large conductance, Ca^2+ activated K^+ channels. The carcinoma cells were preincubated with Fluo-4 as described above, pretreated with each of the channel inhibitors for 30 minutes, exposed to HAMLET (35 μM) and examined by real time confocal imaging. Furthermore, cells treated with EGTA were compared to cells with intact extracellular Ca^2+ levels, to distinguish the early peak from the subsequent influx of Ca^2+ (FIG. 1B, Table in FIG. 8).

bladder cancer [6] = conditions: mouse, in vivo; cited from earlier work
[7] = test system: kidney carcinoma (A498) cells; assay: extended microarray analysis (Illumina HumanHT-12); assay type: cell-based, human
Procedure: as §1, §2, §3

B1: HAMLET (protein, UniProt P00709 20-142, looked up)
Alpha-lactalbumin: KQFTKCELSQLLKDIDGYGGIALPELICTMFHTSGYDTQAIVENNESTEYGLFQISNKLWCKSSQVPQSRNICDISCDKFLDDDITDDIMCAKKILDIKGIDYWLAHKALCTEKLEQWLCEKL
modifications: oleic acid complex
DUSP1 upregulation [1]: 1.34 log 2-fold change
DUSP10 upregulation [1]: 1.98 log 2-fold change
number of genes with minimum log 2-fold change of 1.2 compared to PBS-treated control cells ([1]; adjusted p-value <0.05): Three hundred sixty-seven
death of tumor cells vs healthy tissue (bladder cancer [2]): caused rapid death of tumor cells but not of healthy tissue surrounding the tumor
number of genes responding to HAMLET [3]: 2064 genes
phosphorylation of p38, its isoforms, or HSP27 [4]: no phosphorylation of p38, its isoforms, or HSP27
effect on skin papillomas (skin papillomas): removed or reduced the size of skin papillomas
cell death in healthy brain tissue (glioblastoma xenograft): without evidence of cell death in healthy brain tissue
tumor progression and survival (glioblastoma xenograft): delayed tumor progression and led to increased survival
Trypan blue (tumor cells; Control 88): 8
ATP Activity (tumor cells; Control 100): 21%
Ca^2+ response in HRTECs [5]: weak and transient Ca^2+ response
duration of Ca^2+ response in HRTECs [5]: about 90 seconds
therapeutic efficacy in bladder cancer (bladder cancer [6]): Therapeutic efficacy
number of genes responding to HAMLET [7]: 4424 genes
